Reference: patent publication JP2014141434A (dated 2014)

T1: マウスROBO4 (pCI−mROBO4導入細胞) (mouse, UniProt Q8C310 28-1012)
T1 construct: also called mouse ROBO4; mROBO4
T1 sequence: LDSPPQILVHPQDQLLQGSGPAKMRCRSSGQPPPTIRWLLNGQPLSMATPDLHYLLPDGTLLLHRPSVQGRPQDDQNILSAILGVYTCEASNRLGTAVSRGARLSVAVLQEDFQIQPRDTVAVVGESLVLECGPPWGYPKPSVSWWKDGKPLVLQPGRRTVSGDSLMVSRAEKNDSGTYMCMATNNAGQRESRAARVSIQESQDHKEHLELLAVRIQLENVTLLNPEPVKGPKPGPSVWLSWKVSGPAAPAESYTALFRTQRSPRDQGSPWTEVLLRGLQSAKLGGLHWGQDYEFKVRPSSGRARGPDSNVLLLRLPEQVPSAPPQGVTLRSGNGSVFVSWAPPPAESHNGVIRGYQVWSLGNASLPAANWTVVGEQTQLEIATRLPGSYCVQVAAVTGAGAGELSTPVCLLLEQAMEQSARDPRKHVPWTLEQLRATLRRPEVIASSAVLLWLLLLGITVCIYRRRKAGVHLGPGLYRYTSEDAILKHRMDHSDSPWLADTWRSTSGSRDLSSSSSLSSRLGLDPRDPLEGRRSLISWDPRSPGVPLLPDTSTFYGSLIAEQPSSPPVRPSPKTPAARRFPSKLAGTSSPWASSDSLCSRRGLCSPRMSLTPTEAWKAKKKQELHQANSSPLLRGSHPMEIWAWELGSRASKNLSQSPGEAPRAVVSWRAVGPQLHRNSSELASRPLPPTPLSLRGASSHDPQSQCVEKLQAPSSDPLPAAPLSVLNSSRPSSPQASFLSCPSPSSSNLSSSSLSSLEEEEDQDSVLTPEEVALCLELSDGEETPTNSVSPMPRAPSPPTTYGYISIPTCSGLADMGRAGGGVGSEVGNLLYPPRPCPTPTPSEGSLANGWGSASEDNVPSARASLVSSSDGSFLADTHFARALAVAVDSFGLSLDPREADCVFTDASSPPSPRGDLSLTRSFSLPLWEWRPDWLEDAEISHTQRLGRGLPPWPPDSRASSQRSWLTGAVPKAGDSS

T2: ラットROBO4 (pCI−raROBO4導入細胞) (rat, UniProt Q80W87 38-949 at identity 0.93))
T2 construct: also called rat ROBO4; raROBO4
T2 chain: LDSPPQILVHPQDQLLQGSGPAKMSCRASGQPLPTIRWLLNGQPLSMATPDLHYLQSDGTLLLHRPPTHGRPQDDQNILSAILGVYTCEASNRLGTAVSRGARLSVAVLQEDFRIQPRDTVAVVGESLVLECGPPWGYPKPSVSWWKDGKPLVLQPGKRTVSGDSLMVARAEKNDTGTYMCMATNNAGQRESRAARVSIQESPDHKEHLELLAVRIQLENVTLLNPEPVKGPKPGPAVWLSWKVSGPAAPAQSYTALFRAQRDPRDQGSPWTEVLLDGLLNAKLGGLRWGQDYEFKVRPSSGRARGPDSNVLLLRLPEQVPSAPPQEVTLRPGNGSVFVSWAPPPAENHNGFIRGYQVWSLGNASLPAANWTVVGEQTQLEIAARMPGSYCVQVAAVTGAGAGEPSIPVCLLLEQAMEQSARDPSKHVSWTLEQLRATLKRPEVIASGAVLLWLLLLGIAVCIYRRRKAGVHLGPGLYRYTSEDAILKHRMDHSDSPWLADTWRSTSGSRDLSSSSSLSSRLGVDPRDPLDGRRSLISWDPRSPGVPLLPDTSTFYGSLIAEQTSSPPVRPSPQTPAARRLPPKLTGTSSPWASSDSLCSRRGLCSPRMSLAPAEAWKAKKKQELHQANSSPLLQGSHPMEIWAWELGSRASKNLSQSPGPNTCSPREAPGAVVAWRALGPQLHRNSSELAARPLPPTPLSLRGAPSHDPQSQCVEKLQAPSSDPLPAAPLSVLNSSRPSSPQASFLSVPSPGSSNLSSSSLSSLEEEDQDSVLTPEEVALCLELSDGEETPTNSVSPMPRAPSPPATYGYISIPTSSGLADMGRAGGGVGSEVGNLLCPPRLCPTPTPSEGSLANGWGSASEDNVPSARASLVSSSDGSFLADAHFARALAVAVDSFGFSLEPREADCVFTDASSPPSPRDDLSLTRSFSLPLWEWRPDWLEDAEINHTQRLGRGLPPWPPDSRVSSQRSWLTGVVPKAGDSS

B1: 抗ROBO4マウスモノクローナル抗体 MAb1 (antibody, V domains shown)
VH: EVQLVESGGGLVKPGGSLKLSCAASGFTFSTYAMSWVRQTPEKRLEWVATISNGGTYTYYPDSVKGRFTISRDNAENTLYLQMSSLRSEDTAMYFCARLIYYDYLDYWGHGTTLTVSS
VL: DAVMTQTPLSLPVSLGDQASISCRSSQSLENSNGNTYLNWYFQKPGQSPQLLIYRVSNRFSGVLDRFSGSGSGTDFTLKISRVEAEDFGVYFCLQVTHVPWTFGGGTKLEIKR
notes: Mouse IgG1 (gamma 1) / kappa from a hybridoma; The constant regions are not in the listing; also called MAb1
B2: ヒト化MAb1抗体 H−2143 (antibody, human IgG2, kappa, V domains shown)
VH: EVQLVESGGGLVQPGGSLRLSCAASGFTFSTYAMSWVRQAPGKRLEWVATISQGGTYTYYPDSVKGRFTISRDNAKNTLYLQMNSLRAEDTAVYYCARLIYYDYLDYWGQGTLVTVSS
VL: DIVMTQSPLSLPVTLGEPASISCRSSQSLENENKNLYLNWYLQKPGQSPQLLIYRVSNRFSGVPDRFSGSGSGTDFTLKISRVEAEDVGVYYCLQVTHVPWTFGPGTKVDIKR
notes: Humanised IgG2 / kappa; also called H-2143; hMAb1-H4 / hMAb1-L2
B3: ヒト化MAb1抗体 H−1143 (antibody, human IgG2, kappa, V domains shown)
VH: EVQLVESGGGLVQPGGSLRLSCAASGFTFSTYAMSWVRQAPGKGLEWVATISQGGTYTYYPDSVKGRFTISRDNAKNTLYLQMNSLRAEDTAVYYCARLIYYDYLDYWGQGTLVTVSS
VL: DIVMTQSPLSLPVTLGEPASISCRSSQSLENENKNLYLNWYLQKPGQSPQLLIYRVSNRFSGVPDRFSGSGSGTDFTLKISRVEAEDVGVYYCLQVTHVPWTFGPGTKVDIKR
notes: Humanised IgG2 / kappa; also called H-1143; hMAb1-H2 / hMAb1-L2
B4: ヒト化MAb1抗体 H−2140 (antibody, human IgG2, kappa, V domains shown)
VH: EVQLVESGGGLVQPGGSLRLSCAASGFTFSTYAMSWVRQAPGKRLEWVATISQGGTYTYYPDSVKGRFTISRDNAKNTLYLQMNSLRAEDTAVYYCARLIYYDYLDYWGQGTLVTVSS
VL: DIVMTQSPLSLPVTLGEPASISCRSSQSLENSNGNTYLNWYLQKPGQSPQLLIYRVSNRFSGVPDRFSGSGSGTDFTLKISRVEAEDVGVYYCLQVTHVPWTFGPGTKVDIKR
notes: Humanised IgG2 / kappa; also called H-2140; hMAb1-H4 / hMAb1-L1

Experiments:
[1] = biological target: T1, マウスROBO4 (pCI−mROBO4導入細胞); test: flow cytometry, transfected HEK293 cells
[2] = biological target: T2, ラットROBO4 (pCI−raROBO4導入細胞); test: flow cytometry, transfected HEK293 cells

Row | Binder | binding result [1] | binding result [2]
1 | B1 | no binding (tested: 10 μg/mL) | no binding (tested: 10 μg/mL)
2 | B2 | no binding (tested: 10 μg/mL (method of 4)-3-2)) | no binding (tested: 10 μg/mL (method of 4)-3-2))
3 | B3 | no binding (tested: 10 μg/mL (method of 4)-3-2)) | no binding (tested: 10 μg/mL (method of 4)-3-2))
4 | B4 | no binding (tested: 10 μg/mL (method of 4)-3-2)) | no binding (tested: 10 μg/mL (method of 4)-3-2))
